Experiment [1] concerns the target T1, human platelet factor 4 (PF4) (human, UniProt P02776 32-101).
T1 construct: Immobilized on a CM5 chip (Biacore) or on an ELISA plate; also called human PF4
T1 sequence (looked up): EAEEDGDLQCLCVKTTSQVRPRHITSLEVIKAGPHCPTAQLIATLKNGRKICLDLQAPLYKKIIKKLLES
The experiment is described as follows: SPR (Biacore), human PF4 immobilized on CM5 chip; antibody expressed in 293T cells. As to the method:
(§1) The binding affinity of the mammalian-cell-expressed RTO antibodies to human PF4 immobilized on the surface of a CM5 chip was evaluated using Biacore technology. The humanized antibody (huLight, huHeavy) binds to human PF4 at nM levels (Table 1), which is almost identical to the hybridoma-expressed and mammalian-cell-expressed parental antibody mRTO (mLight, mHeavy).

The target of experiment [2] is T1, human platelet factor 4 (PF4). The experiment is described as follows: SPR (Biacore), human PF4 immobilized on CM5 chip; antibody expressed in expi-CHO cells. The method, then: as §1

B1: humanized RTO antibody (huLight, huHeavy) (antibody, V domains shown)
VH: EVQLVESGGGLVQPGGSLRLSCAASGFAFSRYDMSWVRQAPGKGLEWVATITSGDNYTYYPDSVKGRFTISRDNSKNTLYLQMNSLRAEDTAVYYCTRQGLLYYAMDYWGQGTLVTVSS
VL: DIQMTQSPSSLSASVGDRVTISCSASQGINNYLSWYRQKPGKAPKLLIYYTSSLHSGVPSRFSGSGSGTDFTLTISSLQPEDFATYFCQQFSKLPYTFGGGTKVEIKR
notes: Tested as expressed in 293T and in expi-CHO cells; also called huRTO; HuRTO
In the case of B1, the values for the Kd in experiment [1] and in experiment [2] were 0.75 nM and 2 nM, respectively.

The values are drawn from patent US20200165333A1 (University of Pennsylvania, published 2020).
